Consider 3 molecules from paper PMC10397247.

Common to all, as to assay: two-hybrid library CCNG1;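 note: natural log of median RNA to DNA barcode read ratio; higher means stronger binding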
One experiment concerns the target T1, O13-bA.
T1 chain: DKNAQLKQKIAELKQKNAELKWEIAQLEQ

The next experiment concerns the target T2, O16-bA.
T2 chain: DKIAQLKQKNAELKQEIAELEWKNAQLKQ

A further experiment concerns the target T3, O2-bA.
T3 chain: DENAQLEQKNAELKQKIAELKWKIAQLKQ

The next experiment addresses T4, O8-bA.
T4 chain: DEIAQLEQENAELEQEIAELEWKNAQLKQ

The target in another experiment is T5, O12-bA.
T5 chain: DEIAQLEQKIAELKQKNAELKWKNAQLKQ

For the next experiment, the target named is T6, O11-bA.
T6 chain: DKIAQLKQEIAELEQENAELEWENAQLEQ

For another experiment, the target named is T7, O6-bA.
T7 chain: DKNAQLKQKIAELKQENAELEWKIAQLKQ

For another experiment, the target named is T8, O15-bA.
T8 chain: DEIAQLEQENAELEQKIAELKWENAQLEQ

The target of a further experiment is T9, O3-bA.
T9 chain: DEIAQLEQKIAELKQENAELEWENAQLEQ

The target of another experiment is T10, O9-bA.
T10 chain: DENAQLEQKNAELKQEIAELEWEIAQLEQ
Particulars: mean of both orientations.

Another experiment deals with T11, O7-bA.
T11 chain: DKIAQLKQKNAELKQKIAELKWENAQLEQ

For the next experiment, the target named is T12, O5-bA.
T12 chain: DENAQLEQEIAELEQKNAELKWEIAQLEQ

The target in the next experiment is T13, O4-bA.
T13 chain: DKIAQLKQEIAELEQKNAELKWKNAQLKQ

The target of a further experiment is T14, O10-bA.
T14 chain: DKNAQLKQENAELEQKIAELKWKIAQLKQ

For another experiment, the target named is T15, O14-bA.
T15 chain: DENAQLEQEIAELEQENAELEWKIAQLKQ

The next experiment has as its target T16, 4H3297-bN.
T16 chain: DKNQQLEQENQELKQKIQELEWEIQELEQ

Another experiment has as its target T17, 4H331-bH.
T17 chain: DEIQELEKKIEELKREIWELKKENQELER

In the next experiment the target is T18, 4H883-bH.
T18 chain: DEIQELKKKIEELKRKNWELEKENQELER

Another experiment has as its target T19, 4H2667-bH.
T19 chain: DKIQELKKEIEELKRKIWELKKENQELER

Another experiment concerns the target T20, 4H454-bH.
T20 chain: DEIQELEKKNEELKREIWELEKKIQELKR

The target in the next experiment is T21, 4H3782-bH.
T21 chain: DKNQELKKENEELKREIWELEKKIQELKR

Another experiment deals with T22, 4H754-bH.
T22 chain: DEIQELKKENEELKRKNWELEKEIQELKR

For a further experiment, the target named is T23, 4H687-bH.
T23 chain: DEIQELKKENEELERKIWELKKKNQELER

The next experiment concerns the target T24, 4H3855-bH.
T24 chain: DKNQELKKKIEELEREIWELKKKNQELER

Another experiment concerns the target T25, 4H2442-bH.
T25 chain: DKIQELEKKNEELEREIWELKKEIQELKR

A further experiment has as its target T26, 4H953-bH.
T26 chain: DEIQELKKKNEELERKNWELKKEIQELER

For the next experiment, the target named is T27, 4H2576-bH.
T27 chain: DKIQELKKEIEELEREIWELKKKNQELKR

A further experiment deals with T28, 4H967-bH.
T28 chain: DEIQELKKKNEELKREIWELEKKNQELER

For another experiment, the target named is T29, 4H918-bH.
T29 chain: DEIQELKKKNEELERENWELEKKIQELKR

The next experiment has as its target T30, 4H2673-bA.
T30 chain: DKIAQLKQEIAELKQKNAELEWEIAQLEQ

In a further experiment the target is T31, 4H338-bH.
T31 chain: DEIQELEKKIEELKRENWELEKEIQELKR

A further experiment concerns the target T32, 4H717-bH.
T32 chain: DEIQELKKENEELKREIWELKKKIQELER

The next experiment concerns the target T33, 4H797-bH.
T33 chain: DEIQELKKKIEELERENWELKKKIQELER

The target of the next experiment is T34, 4H908-bH.
T34 chain: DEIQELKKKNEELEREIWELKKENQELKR

The target in a further experiment is T35, 4H607-bH.
T35 chain: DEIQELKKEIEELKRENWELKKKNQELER

The target of another experiment is T36, 4H2729-bH.
T36 chain: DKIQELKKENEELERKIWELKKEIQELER

The target in a further experiment is T37, 4H1828-bH.
T37 chain: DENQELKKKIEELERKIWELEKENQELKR

The target of a further experiment is T38, 4H3354-bH.
T38 chain: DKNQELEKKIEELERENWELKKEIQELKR

For another experiment, the target named is T39, 4H568-bH.
T39 chain: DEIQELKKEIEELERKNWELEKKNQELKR

Another experiment deals with T40, 4H4001-bH.
T40 chain: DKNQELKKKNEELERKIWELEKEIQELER

The target in another experiment is T41, 4H3112-bH.
T41 chain: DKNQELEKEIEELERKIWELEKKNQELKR

In a further experiment the target is T42, 4H1845-bH.
T42 chain: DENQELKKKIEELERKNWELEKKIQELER

For a further experiment, the target named is T43, 4H3427-bH.
T43 chain: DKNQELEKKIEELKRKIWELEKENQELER

The target in a further experiment is T44, 4H3185-bH.
T44 chain: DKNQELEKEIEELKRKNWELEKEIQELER

A further experiment addresses T45, 4H72-bH.
T45 chain: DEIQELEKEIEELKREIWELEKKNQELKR

The target of another experiment is T46, 4H2618-bH.
T46 chain: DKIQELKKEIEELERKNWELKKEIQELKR

The target in a further experiment is T47, 4H3974-bN.
T47 chain: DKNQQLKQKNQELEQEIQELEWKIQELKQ

Another experiment concerns the target T48, 4H619-bN.
T48 chain: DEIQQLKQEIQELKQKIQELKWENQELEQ

Another experiment addresses T49, 4H3817-bN.
T49 chain: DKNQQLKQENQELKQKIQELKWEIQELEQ

In the next experiment the target is T50, 4H3631-bN.
T50 chain: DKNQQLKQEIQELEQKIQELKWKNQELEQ

A further experiment concerns the target T51, 4H3638-bN.
T51 chain: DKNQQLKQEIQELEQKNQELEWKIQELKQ

In a further experiment the target is T52, 4H584-bN.
T52 chain: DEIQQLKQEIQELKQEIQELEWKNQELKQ

In the next experiment the target is T53, 4H850-bN.
T53 chain: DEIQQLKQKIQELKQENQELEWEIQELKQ

The target in the next experiment is T54, 4H906-bN.
T54 chain: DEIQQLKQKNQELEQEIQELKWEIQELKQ

For another experiment, the target named is T55, 4H570-bN.
T55 chain: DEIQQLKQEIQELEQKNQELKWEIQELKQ

Where two headings read alike, the source gives them in different places.

B1: O10-bA (peptide)
chain: DKNAQLKQENAELEQKIAELKWKIAQLKQ
Regarding B1, the interaction score with O13-bA was 0.636; with O16-bA it was 0.945; with O2-bA it was 1.79; with O8-bA, 0.126; with O12-bA, -0.395; with O11-bA it was 0.88. The interaction score in the experiment with O6-bA was 0.6; in the experiment with O15-bA, 0.0908; with O3-bA, -1.28; in the experiment with O9-bA, 1.74; with O7-bA it was 0.923; in the experiment with O5-bA, -0.944. The interaction score with O4-bA is -0.577; with O10-bA (mean of both orientations), 0.0957; with O14-bA it was -1.3.

B2: 4H1828-bH (peptide)
chain: DENQELKKKIEELERKIWELEKENQELKR
As to B2, the interaction score is -1.01 with 4H3297-bN; -0.37 with 4H331-bH; 0.204 in the experiment with 4H883-bH; 1.08 in the experiment with 4H2667-bH; 0.741 with 4H454-bH; 0.484 with 4H3782-bH. Further, the interaction score was 0.147 in the experiment with 4H754-bH; -0.438 in the experiment with 4H687-bH; 0.0964 with 4H3855-bH; 0.0564 with 4H2442-bH; -0.675 with 4H953-bH; -1.69 in the experiment with 4H2576-bH. Further, the interaction score with 4H967-bH was -0.867; with 4H918-bH it was 0.157; with 4H2673-bA, -3.95; in the experiment with 4H338-bH, 1.16; with 4H717-bH, 0.163; with 4H797-bH, 0.474. The interaction score in the experiment with 4H908-bH is -0.285; in the experiment with 4H607-bH it was -2.38; with 4H2729-bH, -0.147; in the experiment with 4H1828-bH it was 0.57; with 4H3354-bH, 0.672; in the experiment with 4H568-bH it was -1.34. Further, the interaction score was 0.309 in the experiment with 4H4001-bH; 0.767 in the experiment with 4H3112-bH; -0.21 in the experiment with 4H1845-bH; 0.362 with 4H3427-bH; -0.478 with 4H3185-bH; 0.102 in the experiment with 4H72-bH. The molecule also displayed an interaction score in the experiment with 4H2618-bH of 0.369.

B3: 4H3631-bN (peptide)
chain: DKNQQLKQEIQELEQKIQELKWKNQELEQ
In the case of B3, the interaction score is -0.31 in the experiment with 4H3974-bN; -0.252 in the experiment with 4H619-bN; -0.125 with 4H3817-bN; -0.0832 with 4H3631-bN; -1.15 with 4H3638-bN; 0.98 with 4H584-bN. The interaction score is -1.06 in the experiment with 4H850-bN, -0.602 in the experiment with 4H906-bN, 0.22 with O10-bA and -1.51 with 4H570-bN.
